Experimental data reported in the supplement of paper PMC10567573.

B1: TRIM35 (parent)
chain: PTCPVCKDRASPADLRTNHTLNNL
B2: RSPH3 (parent)
chain: QRLEEQERRHREEKERRKKQQWEI

Variants of: B1
Test: protein stability index of a GFP-peptide fusion (GPS, HEK-293T) (PSI 1-6); higher = more stable
Settings: c terminus: a fixed tail appended
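Note: lentivirally expressed fusions sorted by FACS into six bins by GFP to DsRed ratio, PSI derived from sequencing read proportions per bin multiplied by bin number.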

Protein stability index, by site and new letter:
N23: P 2.76 | Q 3.1 | E 3.48 | M 2.47 | S 3.18 | L 2.28 | H 3.47 | A 2.73 | I 2.1 | D 3.81 | W 2.09 | K 3.12 | G 2.92 | R 2.37 | V 3.06 | F 2.27 | C 4.21 | Y 1.88 | T 2.58
L24: I 3.5 | Q 3.36 | Y 2.76 | T 3.62 | A 3.89 | S 3.79 | W 3 | G 3.83 | K 3.37 | E 4.03 | D 4.37 | N 3.91 | M 2.8 | H 3.58 | C 3.94 | F 3.32 | P 3.83 | R 1.82 | V 3.56
L21: R 2.55 | W 2.18 | V 2.96 | Y 2.76 | T 3.07 | S 3.42
N22: M 2.67 | R 1.98 | A 3.06 | I 2.65 | T 2.76 | W 2.02 | D 4.1 | K 2.87 | S 2.99 | L 2.56 | H 2.9 | E 3.73 | C 4.13 | Q 3.63 | V 2.21 | F 2.13 | G 3.39 | P 2.44 | Y 2.38

Variants of: B2
Test: as above
Settings: c terminus: a fixed tail appended

Protein stability index, by site and new letter:
E5: L 4.44 | V 4.58 | D 4.55 | Q 5.01 | G 4.53 | P 4.42 | R 4.13 | S 4.5 | I 4.62 | Y 4.28 | A 4.63 | N 3.67 | W 3.98 | H 4.59 | K 3.39 | T 4.01 | F 3.61 | C 4.38 | M 4.59
R11: M 4.6 | W 4.44 | I 4.22 | E 5.19 | Y 4.68 | D 4.93 | K 4.23 | V 4.24 | S 4.35 | L 4.25 | F 4.64 | T 4.62 | H 4.51 | N 5.19 | A 4.91 | C 4.83 | Q 4.67 | P 5.34 | G 5.08
K14: D 4.65 | A 4.83 | V 4.72 | Q 4.26 | H 4.73 | T 4.08 | L 3.94 | I 3.76 | M 4.25 | Y 4.34 | P 4.55 | R 4.15 | N 4.87 | F 4.69 | W 4.45 | C 4.63 | S 3.26 | E 5.13 | G 5.25
L3: S 4.91 | A 4.37 | D 4.82 | K 4.4 | H 4.54 | G 4.75 | R 5.08 | F 4.2 | P 5 | W 4.06 | I 5 | N 4.59 | Q 4.72 | C 4.36 | V 4.82 | M 4.81 | E 5.28 | T 4.99 | Y 4.43
Q1: M 4.76 | A 4.69 | H 5.33 | W 4.13 | E 4.86 | K 4.29 | R 4.49 | I 4.4 | C 3.83 | T 4.78 | S 4.66 | F 4.28 | V 4.81 | N 4.5 | G 4.83 | P 5.21 | L 4.35 | D 4.59 | Y 4.42
R8: Y 4.24 | A 4.86 | E 4.95 | Q 4.61 | F 4.28 | T 4.97 | W 4.09 | S 4.64 | G 5.02 | C 3.71 | H 4.57 | M 3.7 | L 3.69 | K 4.33 | V 5.02 | N 3.93 | P 5.03 | I 4.42 | D 4.79
E15: I 4.09 | D 4.68 | K 4.74 | G 4.36 | C 3.74 | F 3.92 | A 4.44 | H 3.91
E7: R 4.26 | A 4.36 | V 4.57 | H 4.28 | G 3.95 | M 3.38 | K 4.36 | N 4.25 | Q 3.38 | L 4.55 | P 4.75 | F 4.41 | S 3.88 | Y 3.81 | D 4.04 | C 4.15 | W 4.25 | I 3.86 | T 4.95
E4: T 4.15 | W 4.04 | A 4.21 | D 4.56 | K 4.44 | G 5.08 | S 4.84 | Q 4.46 | M 4.1 | Y 3.67 | P 4.48 | L 4.46 | R 3.84 | I 4.17 | N 4.9 | F 4.47 | C 4.38 | H 4.18 | V 3.99
R2: V 4.47 | C 4.58 | W 3.79 | T 5.02 | M 4.06 | Q 4.94 | G 4.54 | H 4.53 | S 5 | F 4.48 | K 4.26 | A 4.57 | P 4.1 | E 5.24 | L 4.63 | I 3.83 | N 5.06 | Y 4.07 | D 5.14
E12: P 4.07 | D 5 | K 3.58 | T 4.28 | W 2.58 | C 4.32 | Q 4.2 | V 4.5 | G 4.36 | N 4.57 | I 3.64 | H 4.03 | Y 3.78 | A 4.84 | S 3.99 | L 4.42 | R 4.37
H10: I 4.5 | A 4.94 | P 4.44 | E 5.26 | Q 5.04 | W 4.49 | V 4.45 | N 5.08 | T 4.79 | L 4.87 | K 4.84 | M 4.43 | G 4.51 | S 4.53 | D 4.38 | F 4.48 | Y 4.05 | R 3.69
E13: M 3.99 | Q 4.52 | I 3.88 | K 4.17 | A 3.79 | D 4.74 | W 3.34 | S 4.02 | C 3.82 | G 4.55 | V 4.14 | N 4.16 | F 3.72 | H 4.19 | T 4.32 | R 4.47 | Y 3.77 | P 4.06 | L 3.95
Q6: C 4.63 | E 4.91 | F 4 | L 4.49 | R 4.42 | S 4.82 | D 4.6 | M 3.96 | Y 4.48 | K 4.19 | P 4.47 | W 4.18 | N 4.4 | T 4.81 | H 4.39 | A 4.9 | I 4.62 | G 4.59 | V 4.85
R9: N 4.56 | C 4.84 | A 5.32 | Q 4.63 | L 4.81 | F 4.98 | S 3.85 | M 5.37 | T 4.51 | H 5.33 | W 4.47 | P 4.92 | E 4.49 | G 4.85 | V 4.85 | D 4.97 | K 4.21 | I 4.4 | Y 4.66
